Results on one molecule are retold here after publication PMC6686035, “Regulation of Iron Storage by CsrA Supports Exponential Growth of Escherichia coli”.

This series concerns the target CsrA-His6 (Escherichia coli, UniProt P69913 1-61). The experiment in a line: EMSA; 10 mM Mg2+; apparent KD, cooperative equation; single shift; EMSA: 0.5 nM RNA, 10 mM MgCl2, 100 mM KCl, 32.5 ng yeast RNA, 20 mM DTT, 7.5% glycerol, 4 U SUPERasin, 37 C 30 min (pH not stated); footprint: 2 nM RNA, 10 mM Tris-HCl pH 7.5, 10 mM MgCl2, 100 mM KCl, 40 ng yeast RNA, 7.5% glycerol, 37 C. The settings on record: protein: recombinant; tags: His6 (C-terminal per name); chain copies: 2; label: 5'-32P. Background: Mobility shift assays separate free from complexed probe on a gel.

CsrA-His6, sequence (P69913 whole entry): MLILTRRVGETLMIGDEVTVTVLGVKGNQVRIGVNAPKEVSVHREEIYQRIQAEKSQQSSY

B1: dps EMSA transcript (ssRNA)
RNA: GGGUUAAUUACUGGGACAUAACAUCAAGAGGAUAUGAAAUUAUGAGUACCGC
With B1, the Kd came out at 25 nM.
